Assay results taken from US10858688 (KYOTO UNIVERSITY, dated 2020).
Where no end group is shown, it is not given here. Atto 488 = fluorescent body linked to the N terminus

Target: T1, actin filament in fixed Xenopus laevis XTC cells (Xenopus laevis)
T1 construct: whole, on cells; Polymer of actin in fixed cells
Experiment: speckle lifetime distribution in fixed XTC cells, 10 ms/frame at 100 Hz, single exponential fit (FIG. 9a)

B1: Lifeact peptide (sequence number 19) with an Atto 488 fluorescent body linked to an N terminus (peptide)
peptide: {Atto 488}-MGVADLIKKFESISKEE
notes: Purchased from Sigma-Aldrich; also called Atto488-Lifeact; Atto 488-Lifeact
For B1, the half-life was 0.023 s.
